Laboratory results taken from patent publication US9744212B2, “Galectin-3C combination therapy for human cancer” (Texas Tech University System, priority 2011, dated 2017).

Experiments:
[1] = system: U266 MM cells; assay: Chemotaxis of U266 cells toward SDF-1α in transwell chambers; assay type: cell-based, human; settings: Gal-3C at 2.0 μg/ml; SDF-1α 100 ng/ml; 4 hours
Description: Chemotaxis of U266 Cells. U266 cells (400×10^3/well) were plated in 100-μl cell culture media with and without Gal-3C (0, 0.4, 2.0, 10, and 20 μg/ml) in the top chambers of 24-well transwell inserts with 8-μm pores. Cell culture media (600 μ ? ) containing the B-cell chemoattractant stromal cell-derived factor (SDF)-1 ? (100 ng/ml; R&D Systems, Minneapolis, Minn., USA) was added to the bottom chamber. After 4 hours, the number of U266 cells in the bottom chamber was counted with a FACScan flow cytometer (flux rate on high, a 2 min acquisition gate, and 200 μs resolution).
FIG. 2 is a graph of Gal-3C inhibits the chemotaxis of U266 MM cells Gal-3C (0.4, 2, 10, or 20 μg/ml) in bicameral chambers in response to stromal cell-derived factor (SDF)-1α (100 ng/ml). Error bars are ±S.D. and sextuplicate data points are represented (ANOVA with Turkey test P<0.001 for all comparisons to controls). […] Gal-3C at 2.0 μg/m1 inhibited more than 60% of the U266 cell chemotaxis stimulated by the chemokine, SDF-1α. The SDF-1α and its receptor, CXCR4, are regulators of the migration and homing of MM cells to the bone marrow, and possibly may also control egression of MM cells out of the bone marrow (76).

[2] = system: HUVEC; assay: HUVEC chemotaxis (migration) toward U266 conditioned media; assay type: cell-based, human; settings: U266 treated 48 h with 10 μg/mL Gal-3C, 5 nM Bor or both; 20% conditioned medium; ANOVA, Tukey's post-test
Description: Chemotaxis of HUVEC Cells. Chemotaxis (migration) was analyzed with HUVEC cells as a measure of angiogenic potential as reported (86), using 50×10^3 cells/well and 24-well transwell inserts with 8-μm pores. […] As a negative control, EGM-2 medium alone was used. After incubation for 16 h, cells were removed from the upper chamber, and the migrated cells were visualized on the lower side of the filter after fixing and staining with 30% methanol, 10% acetic and 0.1% Coomassie Brilliant Blue. Next, the filters were extensively washed with water, and then air-dried and photographed using an inverted X71 microscope (Olympus, Center Valley, Pa., USA). The average number of cells in 4 random fields per filter was calculated. The studies were run in triplicate and the results are expressed as a migration index (MI), as follows: MI=number of cells migrated in the presence of conditioned medium/number of cells migrated in the presence of EGM-2 alone. […] All assays were run in triplicate.
FIG. 3A is a graph of the results from the vascular endothelial cell migration assay. FIG. 3B is an image of the filters. […] Mean migration indexes (left; ±95% C.I.) expressed as the number of cells migrated in the presence of the indicated stimulus divided by the number of cells migrated in the presence of EBM-2 alone. […]

[3] = system: AKT/IKK pathway; assay: Western blot of proteins in the NF-κB AKT/IKK pathway; assay type: cell-based; settings: U266 and primary human MM cells; Gal-3C 10 μg/ml
Excerpt: EXAMPLE 4 indicates Gal-3C impairs NF-kB activation induced by Bonin U266 cells. Recently, it has been shown that the mechanism of action of Boris more complex than originally thought and can be differ depending on the cell type. […] This effect potentially reduces the therapeutic effect of Bonin MM, because NF-kB activation in plasma cells is associated with anti-apoptotic pathways (91). […] Comparison of NFkB expression by Western blot. […] Equal amounts of lysates of human primary MM and U266 cells and media were fractionated by SDS-PAGE and transferred to nitrocellulose membranes. Primary antibodies were visualized with HRP-coupled goat anti-rabbit or anti-mouse IgGs using an ATK/IKK kit (Cell Signaling Technology, Danvers, Mass.).
Upon IKK-mediated phosphorylation, IKBα dissociates from the NF-kB complex (p50 and p65 proteins). Free NF-kB is then phosphorylated on serine 529 of the p65 subunit and enters the nucleus where it regulates gene transcription.

[4] = system: NF-kB (serine 529 phosphorylated p65 subunit); assay: Quantification of NF-kappaB activation by flow cytometry in U266 cells; assay type: cell-based, human; settings: 48 hours
Description: Quantification of NF-kappaB Activation by Flow Cytometry. For measurement of NF-kB activation, 200×10^3 cells were fixed with 2% PFA in ice-cold PBS for 30 minutes. After removal of PFA, cells were permeabilized with 0.3% saponin in PBS on ice for 15 minutes, then washed and resuspended in 50 μL PBS supplemented with 1% BSA. PE-labeled anti-phosphorylated serine 529 p65 antibody (BD Biosciences, San Jose, Calif., USA) or isotype control (final dilution, 1:20) and allowed to incubate on ice in the dark for 30 minutes. Before flow-cytometric analysis cells were washed 3 times in 1-mL cold PBS with 1% BSA.
FIG. 8A is a dot-plot of NF-kB activation in U266 cells. After 48 hours in the presence of indicated treatments, the levels of active NF-KB (serine 529 phosphorylated p65 subunit) were evaluated in U266 cells by flow cytometry.

[5] = system: GFP-expressing HUVECs in U266 tumors; assay: Pilot study of in vivo angiogenesis inhibition (GFP-HUVEC plus U266 in Matrigel, nude mice); parameters: species or system mouse
Description: Pilot study of in vivo angiogenesis inhibition by Gal-3C. To determine the ability of Gal-3C to inhibit angiogenesis in vivo, 106 HUVECs infected with GFP-expressing rAAV vectors and 107 U266 MM cells were mixed together and suspended in 300 μL Matrigel. The cell mixture was injected subcutaneously into 6 nude mice and allowed to grow for two weeks. Three days after tumor administration, the mice were divided into two groups and one group was implanted with osmotic mini-pumps and treated with Gal-3C as in the study describe above. After 2 weeks, mice were sacrificed, pictures were taken, and the GFP-expressing cells in tumor masses were analyzed by flow cytometry.
The ability of Gal-3C to inhibit angiogenesis in vivo was determined in a pilot study. Six mice were injected with […] HUVECs and 107 U266 MM cells suspended in Matrigel and divided into two groups after two weeks. One group of 3 mice was implanted with osmotic mini-pumps and treated with Gal-3C as described above.

B1: Gal-3C: N-terminally truncated human galectin-3 consisting of 143 carboxy-terminal amino acid residues, SEQ ID NO: 1 (protein)
chain: GAPAGPLIVPYNLPLPGGVVPRMLITILGTVKPNANRIALDFQRGNDVAFHFNPRFNENNRRVIVCNTKLDNNWGREERQSVFPFESGKPFKIQVLVEPDHFKVAVNDAHLLQYNHRVKKLNEISKLGISGDIDITSASYTMI
inhibition of U266 cell chemotaxis stimulated by SDF-1α [1]: more than 60% | migration index compared with controls [2]: no significant difference | P-p65, P-Akt, P-IKKβ and P-IKKα (activation of the AKT/IKK pathway) [3]: inhibited | NF-kB activation (phosphorylated active form) [4]: did not have a significant effect | mean fluorescence intensity (MFI) of cells from tumor masses ([5]; GFP-expressing HUVEC, FACS, controls 19.24): 9.4 MFI | reduction of the number of endothelial cells in the tumors ([5]; compared to control mice): 48% | GFP-expressing HUVECs as share of the cells in tumor masses ([5]; controls 89.3%): 46.2% | subcutaneous vascularization near tumors ([5]; image analyses of nude mice): markedly reduced | tumor size (white circles, representative mouse) ([5]; nude mice, control 7 mm): 3 mm
